Assay results as given in the supplement of paper PMC9170038.

Experiments:
MS2 coat protein [1] = experiment: apparent KD of MS2 coat protein, switch ON state; designed switch direction (-1 OFF switch, 1 ON switch): 1; higher = weaker reporter binding; conditions: FMN input: 0 or 200 uM; Eterna round: R93 (includes R88 designs)
In short: (§1)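 Designed RNA switches were transcribed on-chip from Illumina sequencing clusters. SNAP-549-labelled MS2 coat protein was titrated onto them in twofold steps from 0.7 or 1.5 nM to 3 µM in 100 mM Tris-HCl pH 7.5, 80 mM KCl, 4 mM MgCl2, either without or with constant ligand. Apparent KD reflects the per-design median of normalised cluster binding-curve fits.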

MS2 coat protein [2] = experiment: apparent KD of MS2 coat protein, switch OFF state (with FMN for OFF switches, without FMN for ON switches); designed switch direction (-1 OFF switch, 1 ON switch): 1; higher = weaker reporter binding; conditions: FMN input: 0 or 200 uM; Eterna round: R93 (includes R88 designs)
In short: as §1

Row | Sequence | apparent KD of MS2 coat protein (MS2 coat protein [1]) [nM] | apparent KD of MS2 coat protein (MS2 coat protein [2]) [nM]
1 | CAUCAUGCGCCUAAGGAUAUGUCUCACAAGACAUGAGGAUCACCCAUGUAGAAUAAAUAAAUGAUGCAGAAGGUGGAGUGCAUGC [Rierre] | 72.1 | 334
2 | GAAGACAUAGUUCAGGAUAUGGGAAUAGUCACAUGAGGAUCACCCAUGUGCAUUUAUAUGCGCGCUCAGAAGGGAGGUAGAUAAU [Mat - Same state - Malcolm Mod - D118] | 26.9 | 27
3 | AAGAAACAUGAGGAUCACCCAUGUAAGAUAAACACAGGAUAUGCGAAAAGAACAAAAGAAGCAGAAGGGUGAAGAA [Mat - Same State 1 - Tesla mod - D145] | 25.4 | 42.4
4 | AAAAAAAAAACUGAGGAUAUGAAAUAAUAGACAUGAGGAUCACCCAUGUUUUCGGUCGAAAAAAUGCAGAAGGCAGAAAAAAAAAA [JR_SameState2_Sub3] | 19.4 | 23.8
5 | AUAGGGACGUCGGAGGAUAUUCGAUGUAAAACAUGAGGAUCACCCAUGUGAAUAAAAUAAACAUGGAAGAAGGCCGACGUGCCAU [SS 2 M 54] | 10.3 | 13.3
6 | CGGGCCCGGGCGCAGGAUAUCUGAAAAAAAACAUGAGGAUCACCCAUGUGUGGGAAAAAAAAAAAAGAGAAGGGCGCCCGGGCCC [Natural State 2 -38.15 -4 kcal] | 29.4 | 48.6
7 | AAGAAACAUGAGGAUCACCCAUGUGAUAAUAUGGGAGGAUAUACAAAGACGAAAGUCGAAGUAGAAGGCCUAUGAA [Garnet 43] | 36.8 | 62
8 | GAAAUAAAAACACAGGAUAUCCAAAAGAAAACAUGAGGAUCACCCAUGUAAAGAAAAUAAAAAUGGGAGAAGGGUGAAAUAAAAA [Mat - Same State 2 - JL mod - D27] | 30.4 | 33.8
9 | GGAAAUAACAGAGAGGAUAUCCAAAGGAAAACAUGAGGAUCACCCAUGUAAAAGGAAGGAAAUUGGGAGAAGGCUCAAAAUAAUC [salish99-ss2-017] | 23.9 | 24.3
10 | GGAAAUAAAAGAGAGGAUAUCCAAAAGGAAACAUGAGGAUCACCCAUGUAAAAGAAAGGAAAAUGGGAGAAGGCUCAAAAUAAAG [salish99-ss2-004] | 44.2 | 56.1
11 | GGAAAGAAAAGCGAGGAUAUGCUAGGUAAUACAUGAGGAUCACCCAUGUUUUUUUUUAACAAAUUGCAGAAGGCGCAAGAAAGAAA [Ungainly] | 16.5 | 18.2
12 | AUAAAAACGUAUGAGGAUAUCCAAAAUAAAACAUGAGGAUCACCCAUGUGAAUAAAAUAACAAUGGGAGAAGGCAUACGUAUCAU [SS 2 M 53] | 12.5 | 28.8
13 | CGAAAGGAGAGAGAGGAUAUCCAAAGGAAAACAUGAGGAUCACCCAUGUAGAAGGUAGGAGAUUGGGAGAAGGCUCAAGAGAUAU [salish99-ss2-153] | 20 | 44.2
14 | AAAAGACAUGAGGAUCACCCAUGUCAAGACGUAGGAGGAUAUGUCGUGAAAAAAGACUUGGCAGAAGGCCUGUGUC [SS1 - 41] | 15 | 21.4
15 | AAAAAACAUGAGGAUCACCCAUGUAAAAAUAUCACAGGAUAUGGAAACACGAAAGUGAAACCAGAAGGGUGAAAAG [77%, Mat - Mod of Eli, 12] | 20.1 | 44.1
16 | AGGAAACAUGAGGAUCACCCAUGUAAAAAAGUGGGAGGAUAUACUAGAAGAAACAAAAUAGUAGAAGGCCUAAAAA [75%, Ex sub1, 32] | 9.99 | 108

Row | Sequence | apparent KD of MS2 coat protein (MS2 coat protein [1]) [nM] | apparent KD of MS2 coat protein (MS2 coat protein [2]) [nM]
17 | AAUAAACAUGAGGAUCACCCAUGUGAAAAUAUGGGAGGAUAUAGGAAAAAAAAAAAAAAACUAGAAGGCCCAAAAA [SS! 1 MT 12] | 75.3 | 138
18 | AAAAUAUAAAGGAAGGAUAUCCAAAGGACUACAUGAGGAUCACCCAUGUAAAGAAAGAAUAAGUGGGAGAAGGUCCAAAUAAUAA [Designing denovo 31] | 27 | 68.3
19 | CCGAUGGUAUACUAGGAUAUGGGCGCCCUUACAUGAGGAUCACCCAUGUUAUCACAAAGCCGCGGCCAGAAGGAGUUCAUGGGAG [Tieronsove] | 94.7 | 122
20 | AACAAUCUAUCUGAGGAUAUCAAGUCAAAGACAUGAGGAUCACCCAUGUUGCAGGAAACUGCUCUUGAGAAGGCAGAUAGAUUGA [SS2: 1130] | 9.84 | 13.5
21 | AAUAACUAUAACUAGGAUAUCGGAAAUAAGACAUGAGGAUCACCCAUGUAAUAAGACAAAAUAUACGAGAAGGAGUAGGGUGAAA [JR_SS002_Sub012] | 61.2 | 53.2
22 | GAGAAACAUGAGGAUCACCCAUGUAGAAAUAUGGGAGGAUAUACAAAGACGAGAGUCAAAGUAGAAGGCCUAGAAG [77%, Mat - Mod of Eli - With 3 more G's] | 18.8 | 53.6
23 | AUAAAAUACUGUGAGGAUAUCCAUAAUAAAACAUGAGGAUCACCCAUGUGUAGAUAAUAAUAAUGGGAGAAGGCACAUAAUAAUA [Mat - Same state - Mayanna Mod - D101] | 15.7 | 41
24 | AUAUAUAUAAGGUAGGAUAUCCAAAAGUAAACAUGAGGAUCACCCAUGUAAAAAAUCUAAAAAUGGGAGAAGGACCAUAUAUAUA | 19 | 37.1
25 | AUAUAAAUAAGGUAGGAUAUACUAAAGUAAACAUGAGGAUCACCCAUGUAAAGAAAGAAACUCAUGUAGAAGGACCAUAUAUAUA [viburnum 1] | 24.4 | 264
26 | AAAGACAUAGUUCAGGAUAUGGUAAUAGUCACAUGAGGAUCACCCAUGUUCAUUUAUAUGAGCGAUCAGAAGGGAGGUAAAAAAA [SameState2 Malc#15] | 182 | 244
27 | AUAUAUAUAAGACAGGAUAUCCGAAAGUAAACAUGAGGAUCACCCAUGUAAAGAAAGAAACUCAUGGAGAAGGGUCAAUAUAUAU [Mat - Same State 2 - Tesla mod - D84] | 22.4 | 65.6
28 | GAAAAACAUGAGGAUCACCCAUGUAGAGAUAUGGGAGGAUAUACGAAGACGAAAGUCGAGGUAGAAGGCCUAAAAG [Garnet 56] | 27.7 | 108
29 | AAUAUAUUAAGUGAGGAUAUCAAGAAAAAAACAUGAGGAUCACCCAUGUGGGAAACACAAUAGGGUGAGAAGGUACUUAAUAUAU [Samwise Clockwise 18 - Jieux - Same State 2] | 10200 | 8.08
30 | UGAUUGAGAUUGUAGGAUAUUGGAAAAGCCACAUGAGGAUCACCCAUGUCAAAAAAAAAAAAAAACAAGAAGGGCGGUUUUAGUUA [Same State 2] | 58.4 | 64.5
31 | GUCCAACAUGAGGAUCACCCAUGUAAGCGUGAUCAAGGAUAUGGGCGAAAGAAAACGCAACCAGAAGGUGAGCGCC [Aanmati] | 160 | 135
32 | AGAAGACAUGAGGAUCACCCAUGUGGGAAUAUGGGAGGAUAUACAAAGACGAGAGUCAGAGUAGAAGGCCUAGGAA [salish99-SS1-091(!)] | 33 | 132
